Data on 13 molecules can be found in US20230059489A1 (Pfizer, published 2023).

Residue numbers refer to the chain shown, from its start.

T1: mouse FLT3 (mFlt3) (mouse (printed as mFlt3), UniProt Q00342 28-544, limits assumed)
T1 construct: Construct not described
T1 sequence (looked up): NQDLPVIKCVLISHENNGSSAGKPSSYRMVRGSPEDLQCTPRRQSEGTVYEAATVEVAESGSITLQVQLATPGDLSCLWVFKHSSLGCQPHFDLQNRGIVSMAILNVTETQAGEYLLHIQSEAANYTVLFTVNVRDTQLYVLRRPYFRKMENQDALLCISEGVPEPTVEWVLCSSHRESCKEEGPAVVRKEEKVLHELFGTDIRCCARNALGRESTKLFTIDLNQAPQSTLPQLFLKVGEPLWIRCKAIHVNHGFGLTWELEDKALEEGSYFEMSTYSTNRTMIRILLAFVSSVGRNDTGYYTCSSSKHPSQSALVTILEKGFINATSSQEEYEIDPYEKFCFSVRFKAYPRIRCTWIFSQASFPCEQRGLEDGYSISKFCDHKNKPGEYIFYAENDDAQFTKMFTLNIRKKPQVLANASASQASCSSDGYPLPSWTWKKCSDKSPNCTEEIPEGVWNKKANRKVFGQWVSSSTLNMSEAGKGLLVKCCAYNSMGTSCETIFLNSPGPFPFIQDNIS

T2: human FLT3 (hFLT3) (human, UniProt P36888 27-543)
T2 construct: also called huFlt3; Fms-Like Tyrosine Kinase 3
T2 sequence (looked up): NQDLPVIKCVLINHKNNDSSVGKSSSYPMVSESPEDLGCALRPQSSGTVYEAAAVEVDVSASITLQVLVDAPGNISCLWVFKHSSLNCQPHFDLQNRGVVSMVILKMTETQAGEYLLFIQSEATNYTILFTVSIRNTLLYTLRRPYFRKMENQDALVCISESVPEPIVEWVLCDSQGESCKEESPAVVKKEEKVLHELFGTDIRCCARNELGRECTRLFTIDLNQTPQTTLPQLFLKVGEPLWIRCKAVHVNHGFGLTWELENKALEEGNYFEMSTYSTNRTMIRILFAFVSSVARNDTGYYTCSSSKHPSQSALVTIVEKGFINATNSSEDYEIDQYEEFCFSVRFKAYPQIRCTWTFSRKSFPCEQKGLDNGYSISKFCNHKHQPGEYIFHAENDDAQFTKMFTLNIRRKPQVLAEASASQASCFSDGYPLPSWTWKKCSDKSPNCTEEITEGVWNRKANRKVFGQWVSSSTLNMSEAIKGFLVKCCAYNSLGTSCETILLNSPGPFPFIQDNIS

B1: P4F6 (IgG format) (antibody, V domains shown)
VH: QVQLVQSGAEVKKPGSSVKVSCKASGGTFGSYGISWVRQAPGQGLEWMGGIIPIFGTVTYAQKFQGRVTITADESTRTAYMELSSLRSEDTAVYYCARDSWSGATGASDTWGQGTLVTVSS
VL: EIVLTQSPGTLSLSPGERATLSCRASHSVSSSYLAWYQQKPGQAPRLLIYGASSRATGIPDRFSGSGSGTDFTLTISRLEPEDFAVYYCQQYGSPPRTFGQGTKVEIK
notes: IgG format, captured by anti-human Fc
B2: P15F7 (IgG format) (antibody, V domains shown)
VH: EVQLLESGGGLVQPGGSLRLSCAASGFTFNNYAMNWVRQAPGKGLEWVSVISGSGGTTYYADSVKGRFTISRDNSKNTLYLQMNSLRAEDTAVYYCASGIWDLRYWGQGTLVTVSS
VL: DIQMTQSPSSLSASVGDRVTITCRASQSISTYLNWYQQKPGKAPKLLIYAASNLQSGVPSRFSGSGSGTDFTLTISSLQPEDFATYYCQQSYSIPLTFGQGTKVEIK
notes: as for B1
B3: P14G2 (IgG format) (antibody, V domains shown)
VH: B2 VH with N30S, A33V, V50A, G56A, A97V, I100L, D102A, L103G, R104G, Y105I
VL: B2 VL with T31S, A50D, N53D, S56R, S93N, I94T, L96W
notes: as for B1
B4: P9F1 (IgG format) (antibody, V domains shown)
VH: EVQLLESGGGLVQPGGSLRLSCAASGFIFSSFAMSWVRQAPGKGLEWVSDISGSGASTYYADSVKGRFTISRDNSKNTLYLQMNSLRAEDTAVYYCASASGGSGSYWPYMDPWGQGTLVTVSS
VL: QSVLTQPPSASGTPGQRVTISCSGSGSNIGSNYVYWYQQLPGTAPKLLIYRNNQRPSGVPDRFSGSKSGTSASLAISGLRSEDEADYYCAAWDGSLSRPVFGTGTKLTVL
notes: as for B1
B5: P12B6 (IgG format) (antibody, V domains shown)
VH: QVQLVQSGAEVKKPGSSVKVSCKASGGTFMSYAISWVRQAPGQGLEWMGGIIPIFGIANYAQKFQGRVTITADKSTSTAYMELSSLRSEDTAVYYCARETLIYPIPFELWGQGTLVTVSS
VL: EIVLTQSPGTLSLSPGERATLSCRASQIVSSSYLAWYQQKPGQAPRLLIYGASSRASGIPDRFSGSGSGTDFTLTISRLEPEDFAVYYCQQYGGSPYTFGQGTKVEIK
notes: as for B1
B6: P1B4 (IgG format) (antibody, V domains shown)
VH: QVQLVQSGAEVKKPGSSVKVSCKASGGVFSRYALSWVRQAPGQGLEWMGGIIPMLGFANYAQKFQGRVTITADESTSTAYMELSSLRSEDTAVYYCATLDFGALDYWGQGTLVTVSS
VL: B5 VL with I28S, S30P, S31N, S32E, Y33Q, G51D, S57T, G94S, S95P, Y97L
notes: as for B1
B7: P1B11 (IgG format) (antibody, V domains shown)
VH: QVQLVQSGAEVKKPGSSVKVSCKASGGTFRSFDISWVRQAPGQGLEWMGRIIPILGYANYAQKFQGRVTITADESTSTAYMELSSLRSEDTAVYYCASDLGAPWAGYPFDPWGQGTLVTVSS
VL: B5 VL with I28S, Y33E, G51D, S57T, G93D, G94S, Y97L
notes: as for B1
B8: P8B6 (IgG format) (antibody, V domains shown)
VH: QVQLVQSGAEVKKPGSSVKVSCKASGGTFSSYAVSWVRQAPGQGLEWMGGIIPIFGIANYAQKFQGRVTITADTSTSTAYMELSSLRSEDTAVYYCAIEGIGGDLRYDGYDAWGQGTLVTVSS
VL: B5 VL with I28S, S31H, S54F, S57A, G94S, S95D
notes: as for B1
B9: P3E10 (IgG format) (antibody, V domains shown)
VH: QVQLVQSGAEVKKPGSSVKVSCKASGGTFSSYAIQWVRQAPGQGLEWMGGIVGSWGLANYAQKFQGRVTITTDKSTSTAYMELSSLRSEDTAVYYCATSAFGELASWGQGTLVTVSS
VL: B5 VL with I28S, S30P, Y33Q, G51D, S57T, G94S, Y97L
notes: as for B1
B10: P1A5 (IgG format) (antibody, V domains shown)
VH: B6 VH
VL: EIVLTQSPGTLSLSPGERATLSCRASQAVDSSDLAWYQQKPGQAPRLLIYDAYTRPSGIPDRFSGSGSGTDFTLTISRLEPEDFAVYYCQQYGSSPLTFGGGTKLEIK
notes: IgG format, captured by anti-human Fc; the entry printed as P1A5 is used
B11: P3A1 (IgG format) (antibody, V domains shown)
VH: QVQLVQSGAEVKKPGSSVKVSCKASGGTFSSYDISWVRQAPGQGLEWMGGIIPVSGRANYAQKFQGRVTITTDKSTSTAYMELSSLRSEDTAVYYCARVRPTYWPLDYWGQGTLVTVSS
VL: not shown
notes: as for B1
B12: P5F7 (IgG format) (antibody, V domains shown)
VH: EVQLLESGGGLVQPGGSLRLSCAASGFTFSSYAMNWVRQAPGKGLEWVSSISGGGRSTYYADSVKGRFTISRDNSKNTLYLQMNSLRAEDTAVYYCARDLSPSDVGWGYGFDIWGQGTLVTVSS
VL: EIVLTQSPATLSLSPGERATLSCRASQSVSSNLAWYQQKPGQAPRLLIYDTFTRATGIPARFSGSGSGTDFTLTISRLEPEDFAVYYCQQYGSSPPTFGQGTRLEIK
notes: IgG format, captured by anti-human Fc; the VLs differ at the N-terminus; the first entry is used
B13: P4H11 (IgG format) (antibody, V domains shown)
VH: B12 VH
VL: EIVLTQSPGTLSLSPGERATLSCRASQSVSNTYLAWYQQKPGQAPRLLIYDTSSRATGIPDRFSGSGSGTDFTLTISRLEPEDFAVYYCQQYGSSLTFGQGTKVEIK
notes: as for B1

The first assay has as its target T1, mouse FLT3 (mFlt3). The experiment in a line: SPR, Table 6, IgG format, mFlt3 column; set-up for mFlt3 not described.
By Kd is commonly meant the equilibrium constant for the complex coming apart. Read a high Kd as a looser complex. For B1, the Kd was 36.1 nM.

A further assay has as its target T2, human FLT3 (hFLT3). Kind of assay: SPR (Biacore T200), 37 C; IgG captured on anti-human Fc, hFLT3 as analyte. The method, then: All experiments were performed on a Biacore T200 surface Plasmon resonance biosensor (GE Lifesciences, Piscataway N.J.).
The sensor chip preparation was performed at 25° C. with a running buffer of 10 mM HEPES, 150 mM NaCl, 0.05% (v/v) Tween-20, pH 7.4. An anti-human Fc sensor chip was made by activating all flow cells of a Biacore CM4 sensor chip with a 1:1 (v/v) mixture of 400 mM EDC and 100 mM NHS for 7 minutes, at a flow rate of 10 μL/min. An anti-human Fc reagent (Goat Anti-Human IgG Fc, Southern Biotech Catalog #2081-01) was diluted to 30 μg/mL in 10 mM Sodium Acetate pH 4.5 and injected on all flow cells for 7 minutes at 20 μL/min. All flow cells were blocked with 100 mM ethylenediamine in 150 mM Borate buffer pH 8.5 for 7 minutes at 10 μL/min.
The experiments were performed at 37° C. using a running buffer of 10 mM HEPES, 150 mM NaCl, 0.05% (v/v) Tween-20, pH 7.4, 1 mg/mL BSA. FLT3 antibodies were captured from undiluted supernatants onto downstream flow cells (flow cells 2, 3 and 4) at a flow rate of 10 μL/min for 1 minute. Different antibodies were captured on each flow cell. Flow cell 1 was used as a reference surface. Following capture of FLT3 antibodies, analyte (buffer, hFLT3) was injected at 30 μL/min on all flow cells for two minutes. After the analyte injection, dissociation was monitored for 10 minutes followed by regeneration of all flow cells with three 1-minute injections of 75 mM Phosphoric Acid. For each captured FLT3 antibody, the following analyte injections were performed: buffer, 11 nM hFLT3, 33 nM hFLT3, 100 nM hFLT3 and 300 nM hFLT3. Buffer cycles were collected for each captured FLT3 antibody for double-referencing purposes (double-referencing as described in Myszka, D. G. Improving biosensor analysis. J. Mol. Recognit. 12, 279-284 (1999)). The double-referenced sensorgrams were fit globally to a simple 1:1 Langmuir with mass transport binding model.
(Surface plasmon resonance follows binding to a sensor surface in real time, without labels.)
As usually defined, the koff is a measure of how fast the partners let go of each other. Lower therefore signals slow dissociation. What is called kon is the rate constant with which the complex forms. Lower therefore signals slow association. In turn, B2 returned a Kd of 38 nM, a koff of 0.0055 s⁻¹, a kon of 140000 M⁻¹ s⁻¹ and a t1/2 of 2.1 min.

In the case of B3, the affinity, expressed as Kd, was 8 nM; the koff amounted to 0.0011 s⁻¹; the kon turned out to be 140000 M⁻¹ s⁻¹; the t1/2 worked out at 10.7 min.

On to B4, for which binding was put at a Kd of 127 nM, the koff came to 0.023 s⁻¹, the kon was found to be 180000 M⁻¹ s⁻¹ and the t1/2 is 0.5 min.

Regarding B5, the dissociation constant Kd came out at 84 nM, the koff is 0.009 s⁻¹, the kon was determined as 110000 M⁻¹ s⁻¹ and the t1/2 is 1.3 min.

For the molecule B6, binding was characterised by a dissociation constant (Kd) of 32 nM, the koff is 0.0058 s⁻¹, the kon was determined as 180000 M⁻¹ s⁻¹ and the t1/2 turned out to be 2 min.

Take B7: binding was characterised by a dissociation constant (Kd) of 45 nM, the koff turned out to be 0.0055 s⁻¹, the kon was 120000 M⁻¹ s⁻¹ and the t1/2 amounted to 2.1 min.

B8 returned a Kd of 2.5 nM, a koff of 0.00023 s⁻¹, a kon of 93000 M⁻¹ s⁻¹ and a t1/2 of 51 min.

The molecule B9 gave a Kd of 106 nM, a koff of 0.019 s⁻¹, a kon of 180000 M⁻¹ s⁻¹ and a t1/2 of 0.6 min.

As to B10, binding was characterised by a dissociation constant (Kd) of 0.19 nM, the koff amounted to 0.000347 s⁻¹, the kon is 1.78e+06 M⁻¹ s⁻¹ and the t1/2 came out at 33 min.

In the case of B11, the affinity, expressed as Kd, was 64 nM; the koff came to 0.006 s⁻¹; the association rate constant (kon) stood at 95000 M⁻¹ s⁻¹; the t1/2 was 1.9 min.

Molecule B1 yielded a Kd of 25 nM, a koff of 0.0035 s⁻¹, a kon of 140000 M⁻¹ s⁻¹ and a t1/2 of 3.3 min.

Take B12: the Kd turned out to be 0.24 nM, the koff came to 0.000152 s⁻¹, the kon came out at 636000 M⁻¹ s⁻¹ and the t1/2 is 76 min.

Turning to B13, the Kd came to 233 nM, the koff is 0.0144 s⁻¹, the kon turned out to be 61800 M⁻¹ s⁻¹ and the t1/2 came out at 1 min.
